# Experimental data as given in publication PMC5391026.
# Columns and labels:
# [1] = molecular target: HvPho1ΔL78 (HvPho1 lacking the L78 insertion) (barley (Hordeum vulgare)); assay: SEC; single recombinant proteins on HiLoad Superdex S-200 26/60, 25 mM HEPES pH 7.5, 50 mM NaCl; apparent molecular weight by column calibration; peak fractions also analysed by DLS at 25°C
# [2] = molecular target: branching enzyme IIb (HvBeIIb) of barley endosperm extract (barley (endogenous in Hordeum vulgare 'QUENCH' endosperm)); assay: SEC; total barley endosperm soluble protein on a 26/60 Superdex S-200 column; fractions analysed by immunoblot (anti-HvPho1, anti-HvBeIIb polyclonal antibodies) and native activity gels; extract with or without 1 mM ATP and 2.5 mM protein phosphatase inhibitor cocktail before SEC
# [3] = molecular target: recombinant barley plastidic starch phosphorylase (HvPho1) (barley (Hordeum vulgare)); assay: SEC; single recombinant proteins on HiLoad Superdex S-200 26/60, 25 mM HEPES pH 7.5, 50 mM NaCl; apparent molecular weight by column calibration; peak fractions also analysed by DLS at 25°C
# [4] = molecular target: recombinant barley plastidic starch phosphorylase (HvPho1) (barley (Hordeum vulgare)); assay: cross-linking; recombinant HvPho1 (1 mg/ml) in 20 mM HEPES pH 7.5 treated with glutaraldehyde (0.15% v/v) for 0.5 to 30 min at 37°C; SDS-PAGE
substance,measurement,setting,value
HvPho1ΔL78 (HvPho1 lacking the L78 insertion) (enzyme),stoichiometry N,[1],2
branching enzyme IIb (HvBeIIb) of barley endosperm extract,stoichiometry N,[2],2
recombinant barley plastidic starch phosphorylase (HvPho1) (enzyme),stoichiometry N,[3],2
same,stoichiometry N,[4],2
